In general, EC50 refers to the concentration at which the effect is half-maximal. Read a high EC50 as a less potent agent.

Results on one molecule are retold here after patent publication US20260183437A1 (ABDERA THERAPEUTICS, published 2026).

Experiment [1] concerns the target T1, DLL3 on cells (UniProt Q9NYJ7 27-618, limits assumed).
T1 construct: whole, on cells; also called DLL3 on SHP-77, NCI-H82 (H82), NCI-H69 and HEK-DLL3 cells
T1 sequence (looked up): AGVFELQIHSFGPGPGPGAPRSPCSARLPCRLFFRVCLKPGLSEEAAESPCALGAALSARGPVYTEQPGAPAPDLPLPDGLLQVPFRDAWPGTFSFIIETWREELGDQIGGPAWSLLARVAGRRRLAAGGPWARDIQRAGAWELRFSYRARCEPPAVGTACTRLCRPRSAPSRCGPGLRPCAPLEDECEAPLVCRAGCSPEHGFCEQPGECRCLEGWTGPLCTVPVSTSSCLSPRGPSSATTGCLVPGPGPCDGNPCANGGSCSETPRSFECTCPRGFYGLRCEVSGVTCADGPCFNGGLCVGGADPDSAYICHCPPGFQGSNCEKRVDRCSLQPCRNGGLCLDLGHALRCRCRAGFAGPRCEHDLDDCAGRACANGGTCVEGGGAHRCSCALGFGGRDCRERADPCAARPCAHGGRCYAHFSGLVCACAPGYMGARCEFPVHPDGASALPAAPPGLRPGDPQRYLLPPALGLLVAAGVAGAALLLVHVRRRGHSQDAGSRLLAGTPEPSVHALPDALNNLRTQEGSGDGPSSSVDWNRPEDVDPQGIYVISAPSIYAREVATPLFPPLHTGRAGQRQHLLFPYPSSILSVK
The experiment can be described thus: flow cytometry on SHP-77 cells. Background: A flow cytometer gives signals particle by particle.

The target in experiment [2] is T1, DLL3 on cells. The experiment can be described thus: flow cytometry on HEK-DLL3 cells.

B1: Rovalpituzumab (antibody, V domains shown)
VH: QVQLVQSGAEVKKPGASVKVSCKASGYTFTNYGMNWVRQAPGQGLEWMGWINTYTGEPTYADDFKGRVTMTTDTSTSTAYMELRSLRSDDTAVYYCARIGDSSPSDYWGQGTLVTVSS
VL: EIVMTQSPATLSVSPGERATLSCKASQSVSNDVVWYQQKPGQAPRLLIYYASNRYTGIPARFSGSGSGTEFTLTISSLQSEDFAVYYCQQDYTSPWTFGQGTKLEIK
B1: the EC50 with DLL3 on cells [1] came out at 0.11 nM; in the experiment with DLL3 on cells [2], 0.06 nM.
